Assay results taken from US10047138.

Assays:
[1] = target: ICOS-CD3 III fusion protein (human); test: cell-based or functional assay
[2] = target: full length human wild type ICOS (human) (UniProt Q9Y6W8); test: cell-based or functional assay
UniProt Q9Y6W8, sequence (Q9Y6W8 21-199): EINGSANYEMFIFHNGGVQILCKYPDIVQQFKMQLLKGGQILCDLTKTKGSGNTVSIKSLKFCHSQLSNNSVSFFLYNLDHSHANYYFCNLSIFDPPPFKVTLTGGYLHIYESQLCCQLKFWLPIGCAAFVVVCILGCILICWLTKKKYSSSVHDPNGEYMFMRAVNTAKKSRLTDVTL

ICOS-CD3 III fusion protein (human), sequence (chain, as listed by the source limits assumed): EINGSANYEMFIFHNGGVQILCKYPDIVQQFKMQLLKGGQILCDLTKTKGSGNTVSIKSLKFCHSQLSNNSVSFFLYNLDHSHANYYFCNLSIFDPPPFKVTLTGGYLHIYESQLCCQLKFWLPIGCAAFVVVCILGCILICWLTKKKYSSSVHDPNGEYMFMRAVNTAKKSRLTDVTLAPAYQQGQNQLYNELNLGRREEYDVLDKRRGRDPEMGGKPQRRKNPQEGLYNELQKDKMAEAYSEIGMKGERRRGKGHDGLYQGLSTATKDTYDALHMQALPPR

- IL-2 secretion (RLU), difference between clusters 1 (anti-CD3 alone) and 3 (anti-CD3 plus B7RP1-Fc) [1]: > 200 fold
- IL-2 secretion by Jurkat cells, 2.5 µg/mL anti-CD3 antibody plus 50 µg/mL B7RP1-Fc against anti-CD3 antibody alone [1]: > 170 fold
- IL-2 secretion (RLU), difference between clusters 1 (anti-CD3 alone) and 3 (anti-CD3 plus B7RP1-Fc) [2]: < 8 fold
- IL-2 secretion by Jurkat cells, 2.5 µg/mL anti-CD3 antibody plus 50 µg/mL B7RP1-Fc against anti-CD3 antibody alone [2]: < 17 fold
Substance: B7RP1-Fc protein (from UniProt O75144 19-253) (Fc fusion)
